Reference: US20210380647A1 (AFFILOGIC, published 2021)

Key:
TNFa mutant S95C/G148C = biological target: T1, TNFa mutant S95C/G148C (UniProt P01375 77-233, S95C; G148C, disulfide bridges between subunits via C95 and C148); assay: ELISA of N11 on TNFa mutants (FIG. 12)
T1 construct: Positions probably count on the mature soluble chain; also called stabilized trimer of TNFa; stabilized TNFa trimer

murine TNFa = biological target: T2, murine TNFa (murine, UniProt P06804 80-235); assay: ELISA at a single concentration (EC100) on a plate functionalized with mTNFa (FIG. 3)
T2 construct: also called mTNFa; mouse TNF
T2 sequence (looked up): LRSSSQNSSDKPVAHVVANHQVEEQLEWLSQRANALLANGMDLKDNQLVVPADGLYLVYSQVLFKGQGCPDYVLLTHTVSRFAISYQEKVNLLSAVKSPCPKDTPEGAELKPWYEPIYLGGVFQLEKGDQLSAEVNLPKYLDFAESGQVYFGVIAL
Description: Biotinylated antigens are immobilized on streptavidin-coated plates as described above, except that the blocking step is performed for 1h at room temperature. For the identification of the positive clones, 100 μl of E. coli crude extracts are applied to wells with or without immobilized antigen for 1 h at RT. The binding is visualized using anti-RGSHis antibody HRP conjugate (Qiagen) which detects RGSHis6 tag from the variant and a solution at 1 mg/ml of o-phenylenediamine substrate (OPD) in revelation buffer (0.05 M citric acid, 0.05% hydrogen peroxide). Absorbance at 450 nm is measured using an ELISA plate reader. Quantitative ELISAs is done in the same manner, except purified protein is used.
A plate was functionalized with hTNFa and mTNFa.

TNFa mutant Y119A = biological target: T3, TNFa mutant Y119A (UniProt P01375 77-233, Y119A); assay: ELISA of N11 on Y119 mutants (FIG. 12A)
T3 construct: The text speaks of 'Y119 mutants'; also called Y119 mutants; Y119 TNFalpha variants
T3 sequence (P01375 77-233 Y195A): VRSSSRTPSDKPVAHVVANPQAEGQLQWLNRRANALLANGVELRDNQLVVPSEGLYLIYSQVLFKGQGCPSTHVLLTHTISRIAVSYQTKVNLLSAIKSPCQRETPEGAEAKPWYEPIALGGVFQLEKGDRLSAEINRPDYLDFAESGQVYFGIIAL

TNFa mutant Y119R = biological target: T4, TNFa mutant Y119R (UniProt P01375 77-233, Y119R); assay: ELISA of N11 on Y119 mutants (FIG. 12A)
T4 construct: The text speaks of 'Y119 mutants'; also called Y119 mutants; Y119 TNFalpha variants
T4 sequence (P01375 77-233 Y195R): as the sequence (P01375 77-233 Y195A) above, with A119R counted along it

T1 sequence (P01375 77-233 S171C/G224C): as the sequence (P01375 77-233 Y195A) above, with S95C, A119Y, G148C counted along it

B1: N11 (designed binder)
chain: MVKVKFVMFGKEKEVDTSKIVHVMRQGKLVHFWYEDNGKIDKGFVPEKDAPKELLDMLARAEREK
notes: Variant of Sac7d selected by ribosome display on biotinylated hTNFa; also called Sac7d variant N11; Nanofitin N11
binding result (TNFa mutant S95C/G148C): no binding
binding result (murine TNFa): binds
binding result (TNFa mutant Y119A): binds
binding result (TNFa mutant Y119R): binds
